Laboratory results from patent publication US20100285131A1 (Amgen, published 2010).

B1: FGF21 truncation mutant 1-178 (ligand)
chain: HPIPDSSPLLQFGGQVRQRYLYTDDAQQTEAHLEIREDGTVGGAADQSPESLLQLKALKPGVIQILGVKTSRFLCQRPDGALYGSLHFDPEACSFRELLLEDGYNVYQSEAHGLPLHLPGNKSPHRDPAPRGPARFLPLPGLPPAPPEPPGILAPQPPDVGSSDPLSMVGPSQGRSPS
B2: FGF21 truncation mutant 7-181 (ligand)
chain: SPLLQFGGQVRQRYLYTDDAQQTEAHLEIREDGTVGGAADQSPESLLQLKALKPGVIQILGVKTSRFLCQRPDGALYGSLHFDPEACSFRELLLEDGYNVYQSEAHGLPLHLPGNKSPHRDPAPRGPARFLPLPGLPPAPPEPPGILAPQPPDVGSSDPLSMVGPSQGRSPSYAS
B3: FGF21 truncation mutant 9-181 (ligand)
chain: LLQFGGQVRQRYLYTDDAQQTEAHLEIREDGTVGGAADQSPESLLQLKALKPGVIQILGVKTSRFLCQRPDGALYGSLHFDPEACSFRELLLEDGYNVYQSEAHGLPLHLPGNKSPHRDPAPRGPARFLPLPGLPPAPPEPPGILAPQPPDVGSSDPLSMVGPSQGRSPSYAS
B4: FGF21 truncation mutant 3-181 (ligand)
chain: IPDSSPLLQFGGQVRQRYLYTDDAQQTEAHLEIREDGTVGGAADQSPESLLQLKALKPGVIQILGVKTSRFLCQRPDGALYGSLHFDPEACSFRELLLEDGYNVYQSEAHGLPLHLPGNKSPHRDPAPRGPARFLPLPGLPPAPPEPPGILAPQPPDVGSSDPLSMVGPSQGRSPSYAS
B5: FGF21 truncation mutant 1-171 (ligand)
chain: HPIPDSSPLLQFGGQVRQRYLYTDDAQQTEAHLEIREDGTVGGAADQSPESLLQLKALKPGVIQILGVKTSRFLCQRPDGALYGSLHFDPEACSFRELLLEDGYNVYQSEAHGLPLHLPGNKSPHRDPAPRGPARFLPLPGLPPAPPEPPGILAPQPPDVGSSDPLSMVGP
B6: FGF21 truncation mutant 1-166 (ligand)
chain: HPIPDSSPLLQFGGQVRQRYLYTDDAQQTEAHLEIREDGTVGGAADQSPESLLQLKALKPGVIQILGVKTSRFLCQRPDGALYGSLHFDPEACSFRELLLEDGYNVYQSEAHGLPLHLPGNKSPHRDPAPRGPARFLPLPGLPPAPPEPPGILAPQPPDVGSSDPL
B7: FGF21 truncation mutant 2-181 (ligand)
chain: PIPDSSPLLQFGGQVRQRYLYTDDAQQTEAHLEIREDGTVGGAADQSPESLLQLKALKPGVIQILGVKTSRFLCQRPDGALYGSLHFDPEACSFRELLLEDGYNVYQSEAHGLPLHLPGNKSPHRDPAPRGPARFLPLPGLPPAPPEPPGILAPQPPDVGSSDPLSMVGPSQGRSPSYAS
B8: FGF21 truncation mutant 1-180 (ligand)
chain: HPIPDSSPLLQFGGQVRQRYLYTDDAQQTEAHLEIREDGTVGGAADQSPESLLQLKALKPGVIQILGVKTSRFLCQRPDGALYGSLHFDPEACSFRELLLEDGYNVYQSEAHGLPLHLPGNKSPHRDPAPRGPARFLPLPGLPPAPPEPPGILAPQPPDVGSSDPLSMVGPSQGRSPSYA
B9: human FGF21 (ligand)
chain: HPIPDSSPLLQFGGQVRQRYLYTDDAQQTEAHLEIREDGTVGGAADQSPESLLQLKALKPGVIQILGVKTSRFLCQRPDGALYGSLHFDPEACSFRELLLEDGYNVYQSEAHGLPLHLPGNKSPHRDPAPRGPARFLPLPGLPPAPPEPPGILAPQPPDVGSSDPLSMVGPSQGRSPSYAS
B10: FGF21 truncation mutant 1-172 (ligand)
chain: HPIPDSSPLLQFGGQVRQRYLYTDDAQQTEAHLEIREDGTVGGAADQSPESLLQLKALKPGVIQILGVKTSRFLCQRPDGALYGSLHFDPEACSFRELLLEDGYNVYQSEAHGLPLHLPGNKSPHRDPAPRGPARFLPLPGLPPAPPEPPGILAPQPPDVGSSDPLSMVGPS
B11: FGF21 truncation mutant 5-181 (ligand)
chain: DSSPLLQFGGQVRQRYLYTDDAQQTEAHLEIREDGTVGGAADQSPESLLQLKALKPGVIQILGVKTSRFLCQRPDGALYGSLHFDPEACSFRELLLEDGYNVYQSEAHGLPLHLPGNKSPHRDPAPRGPARFLPLPGLPPAPPEPPGILAPQPPDVGSSDPLSMVGPSQGRSPSYAS
B12: FGF21 truncation mutant 8-181 (ligand)
chain: PLLQFGGQVRQRYLYTDDAQQTEAHLEIREDGTVGGAADQSPESLLQLKALKPGVIQILGVKTSRFLCQRPDGALYGSLHFDPEACSFRELLLEDGYNVYQSEAHGLPLHLPGNKSPHRDPAPRGPARFLPLPGLPPAPPEPPGILAPQPPDVGSSDPLSMVGPSQGRSPSYAS
B13: FGF21 truncation mutant 1-173 (ligand)
chain: HPIPDSSPLLQFGGQVRQRYLYTDDAQQTEAHLEIREDGTVGGAADQSPESLLQLKALKPGVIQILGVKTSRFLCQRPDGALYGSLHFDPEACSFRELLLEDGYNVYQSEAHGLPLHLPGNKSPHRDPAPRGPARFLPLPGLPPAPPEPPGILAPQPPDVGSSDPLSMVGPSQ
B14: FGF21 truncation mutant 1-177 (ligand)
chain: HPIPDSSPLLQFGGQVRQRYLYTDDAQQTEAHLEIREDGTVGGAADQSPESLLQLKALKPGVIQILGVKTSRFLCQRPDGALYGSLHFDPEACSFRELLLEDGYNVYQSEAHGLPLHLPGNKSPHRDPAPRGPARFLPLPGLPPAPPEPPGILAPQPPDVGSSDPLSMVGPSQGRSP
B15: FGF21 truncation mutant 4-181 (ligand)
chain: PDSSPLLQFGGQVRQRYLYTDDAQQTEAHLEIREDGTVGGAADQSPESLLQLKALKPGVIQILGVKTSRFLCQRPDGALYGSLHFDPEACSFRELLLEDGYNVYQSEAHGLPLHLPGNKSPHRDPAPRGPARFLPLPGLPPAPPEPPGILAPQPPDVGSSDPLSMVGPSQGRSPSYAS
B16: FGF21 truncation mutant 1-176 (ligand)
chain: HPIPDSSPLLQFGGQVRQRYLYTDDAQQTEAHLEIREDGTVGGAADQSPESLLQLKALKPGVIQILGVKTSRFLCQRPDGALYGSLHFDPEACSFRELLLEDGYNVYQSEAHGLPLHLPGNKSPHRDPAPRGPARFLPLPGLPPAPPEPPGILAPQPPDVGSSDPLSMVGPSQGRS
B17: FGF21 truncation mutant 1-174 (ligand)
chain: HPIPDSSPLLQFGGQVRQRYLYTDDAQQTEAHLEIREDGTVGGAADQSPESLLQLKALKPGVIQILGVKTSRFLCQRPDGALYGSLHFDPEACSFRELLLEDGYNVYQSEAHGLPLHLPGNKSPHRDPAPRGPARFLPLPGLPPAPPEPPGILAPQPPDVGSSDPLSMVGPSQG
B18: FGF21 truncation mutant 1-169 (ligand)
chain: HPIPDSSPLLQFGGQVRQRYLYTDDAQQTEAHLEIREDGTVGGAADQSPESLLQLKALKPGVIQILGVKTSRFLCQRPDGALYGSLHFDPEACSFRELLLEDGYNVYQSEAHGLPLHLPGNKSPHRDPAPRGPARFLPLPGLPPAPPEPPGILAPQPPDVGSSDPLSMV
B19: FGF21 truncation mutant 1-165 (ligand)
chain: HPIPDSSPLLQFGGQVRQRYLYTDDAQQTEAHLEIREDGTVGGAADQSPESLLQLKALKPGVIQILGVKTSRFLCQRPDGALYGSLHFDPEACSFRELLLEDGYNVYQSEAHGLPLHLPGNKSPHRDPAPRGPARFLPLPGLPPAPPEPPGILAPQPPDVGSSDP
B20: FGF21 truncation mutant 1-167 (ligand)
chain: HPIPDSSPLLQFGGQVRQRYLYTDDAQQTEAHLEIREDGTVGGAADQSPESLLQLKALKPGVIQILGVKTSRFLCQRPDGALYGSLHFDPEACSFRELLLEDGYNVYQSEAHGLPLHLPGNKSPHRDPAPRGPARFLPLPGLPPAPPEPPGILAPQPPDVGSSDPLS

What was measured:
[1] = target: T1, β-Klotho overexpressed in recombinant human 293T kidney cells; experiment: cell-based or functional assay
[2] = target: T1, β-Klotho overexpressed in recombinant …; experiment: cell-based or functional assay; remark: listed apart in the source

Binder	Efficacy (ELK-luciferase, relative to wild-type FGF21) [1] [%]	EC50 (nM), ELK-luciferase [2] [nM]	Efficacy, ELK-luciferase [2] [%]
B1	95	–	–
B2	74.2	–	–
B3	12.5	–	–
B4	130	–	–
B5	113	–	–
B6	20	–	–
B7	112	–	–
B8	93.2	–	–
B9	–	0.4	100
B10	97.5	–	–
B11	120	–	–
B12	24.9	–	–
B13	96.1	–	–
B14	112	–	–
B15	117	–	–
B16	105	–	–
B17	105	–	–
B18	84.9	–	–
B19	10	–	–
B20	20	–	–
